Drawing on patent US20250340637A1 (ABPRO, published 2025), this text covers Kd for 19 molecules.

Bounds are passed on as bounds.

To fix the notation:
B1: ABP100s.1 (antibody, V domains shown)
VH: EVQLVESGGGLVQPGGSLRLSCAASGFTFNTYAMNWVRQAPGKGLEWVARIRSKYNNYATYYADSVKGRFTISRDDSQSSLYLQMNSLKTEDTAVYYCVRHGNFGNSYVSWFAYWGQGTLVTVSS
VL: QAVVTQEPSFSVSPGGTVTLTCGSSTGAVTTSNYANWVQQTPGQAFRGLIGGTNKRAPGVPDRFSGSLIGDKAALTITGAQADDESDYFCALWYSNLWVFGGGTKLTVL
B2: ABP100s.5.4 (antibody, V domains shown)
VH: EVQLVESGGGLVQPGGSLKLSCAASGFTFNTYAMNWVRQAPGKGLEWVARIRSKYNNYATYYADSVKDRFTISRDDSKNTAYLQMNSLKTEDTAVYYCVRHGNFGNSYVSWFAYWGQGTLVTVSS
VL: QTVVTQEPSLTVSPGGTVTLTCRSSTGAVTTSNYANWVQQKPGQAFRGLIGGTNKRAPGVPARFSGSLLGGKAALTLSGVQPEDEAIYFCALWYSNLWVFGGGTKLTVL
B3: anti-HER2×CD3 BsAb comprising the anti-CD3 VH and VL sequences of ABP100s.10.0 (bispecific antibody, V domains shown)
VH 1: not shown
VL 1: not shown
VH 2: EVQLVESGGGLVQPGGSLKLSCAASGFTFNTYAMNWVRQAPGKCLEWVARIRSKYNNYATYYADSVKDRFTISRDDSKNTAYLQMNSLKTEDTAVYYCVRHGNFGNSYVSWFAYWGQGTLVTVSS
VL 2: QTVVTQEPSLTVSPGGTVTLTCRSSTGAVTTSNYANWVQQKPGQAFRGLIGGTNKRAPGVPARFSGSLLGGKAALTLSGVQPEDEAIYFCALWYSNLWVFGCGTKLTVL
notes: Only the four variable domains are tied to the tested molecule; also called 10.0 clone; parental construct
B4: ABP100s.10.3 (antibody, V domains shown)
VH: EVQLVESGGGLVQPGGSLKLSCAASGFTFNTYAMNWVRQAPGKCLEWVARIRSKYNNYATYYADSVKDRFTISRDDSKNTAYLQMNSLKTEDTAVYYCVRHGNFGNSYVSWFAYWGQGTLVTVSS
VL: QTVVTQEPSLTVSPGGTVTLTCRSSTGAVTTSNYANWVQQKPGQAFRGLIGGTNKRAPGVPARFSGSLLGGKAALTLSGVQPEDEAIYFCALWYSNLWVFGCGTKLTVL
B5: ABP100s.6 (antibody, V domains shown)
VH: EVQLVESGGGLVQPGGSLKLSCAASGFTFNTYAMNWVRQAPGKGLEWVARIRSKYNNYATYYADSVKDRFTISRDDSKNTAYLQMNSLKTEDTAVYYCVRHGNFGNSYVSWFAYWGQGTLVTVSS
VL: QTVVTQEPSLTVSPGGTVTLTCRSSTGAVTTSNYANWVQQKPGQAFRGLIGGTNKRAPGVPARFSGSLLGGKAALTLSGVQPEDEAEYFCALWYSNLWVFGGGTKLEIK
B6: ABP100s.2 (antibody, V domains shown)
VH: EVQLVESGGGLVQPGGSLRLSCAASGFTFNTYAMNWVRQAPGKGLEWVARIRSKYNNYATYYADSVKGRFTISRDDSKSSLYLQMNSLKTEDTAVYYCVRHGNFGNSYVSWFAYWGQGTLVTVSS
VL: QAVVTQEPSFSVSPGGTVTLTCGSSTGAVTTSNYANWVQQTPGQAFRGLIGGTNKRAPGVPDRFSGSLIGDKAALTITGAQADDESDYFCALWYSNLWVFGGGTKLTVL
B7: ABP100s.7 (antibody, V domains shown)
VH: EVQLVESGGGLVQPGGSLKLSCAASGFTFNTYAMNWVRQASGKGLEWVARIRSKYNNYATYYADSVKDRFTISRDDSKNTAYLQMNSLKTEDTAVYYCVRHGNFGNSYVSWFAYWGQGTLVTVSS
VL: QTVVTQEPSLTVSPGGTVTLTCRSSTGAVTTSNYANWVQQKPGQAFRGLIGGTNKRAPGVPARFSGSLLGGKAALTLSGVQPEDEAIYFCALWYSNLWVFGGGTKLEIK
B8: ABP100s.4 (antibody, V domains shown)
VH: EVQLVESGGGLVKPGGSLRLSCAASGFTFNTYAMNWVRQAPGKGLEWVARIRSKYNNYATYYADSVKGRFTISRDDAKSSLYLQMNSLRAEDTAVYYCVRHGNFGNSYVSWFAYWGQGTLVTVSS
VL: QAVVTQEPSFSVSPGGTVTLTCGSSTGAVTTSNYANWVQQTPGQAFRGLIGGTNKRAPGVPDRFSGSLIGDKAALTITGAQADDESDYFCALWYSNLWVFGGGTKLTVL
B9: ABP100s.5.1 (antibody, V domains shown)
VH: EVQLVESGGGLVQPGGSLKLSCAASGFTFNTYAMNWVRQAPGKCLEWVARIRSKYNNYATYYADSVKDRFTISRDDSKNTAYLQMNSLKTEDTAVYYCVRHGNFGNSYVSWFAYWGQGTLVTVSS
VL: QTVVTQEPSLTVSPGGTVTLTCRSSTGAVTTSNYANWVQQKPGQAFRGLIGGTNKRAPGVPARFSGSLLGGKAALTLSGVQPEDEAIYFCALWYSNLWVFGCGTKLEIK
B10: ABP100s.10.1 (antibody, V domains shown)
VH: EVQLVESGGGLVQPGGSLKLSCAASGFTFNTYAMNWVRQAPGKCLEWVARIRSKYNNYATYYADSVKDRFTISRDDSKNTAYLQMNSLKTEDTAVYYCVRHGNFGNSYVSWFAYWGQGTLVTVSS
VL: QTVVTQEPSLTVSPGGTVTLTCRSSTGAVTTSNYANWVQQKPGQAFRGLIGGTNKRAPGVPARFSGSLLGGKAALTLSGVQPEDEAIYFCALWYSNLWVFGCGTKLTVL
B11: ABP100s.5.2 (antibody, V domains shown)
VH: EVQLVESGGGLVQPGGSLKLSCAASGFTFNTYAMNWVRQAPGKGLEWVARIRSKYNNYATYYADSVKDRFTISRDDSKNTAYLQMNSLKTEDTAVYYCVRHGNFGNSYVSWFAYWGCGTLVTVSS
VL: QTVVTQEPSLTVSPGGTVTLTCRSSTGAVTTSNYANWVQQKPGQCFRGLIGGTNKRAPGVPARFSGSLLGGKAALTLSGVQPEDEAIYFCALWYSNLWVFGGGTKLEIK
B12: ABP100s.3 (antibody, V domains shown)
VH: EVQLVESGGGLVKPGGSLRLSCAASGFTFNTYAMNWVRQAPGKGLEWVARIRSKYNNYATYYADSVKGRFTISRDDSQSSLYLQMNSLRAEDTAVYYCVRHGNFGNSYVSWFAYWGQGTLVTVSS
VL: QAVVTQEPSFSVSPGGTVTLTCGSSTGAVTTSNYANWVQQTPGQAFRGLIGGTNKRAPGVPDRFSGSLIGDKAALTITGAQADDESDYFCALWYSNLWVFGGGTKLTVL
B13: ABP100s.10.2 (antibody, V domains shown)
VH: EVQLVESGGGLVQPGGSLKLSCAASGFTFNTYAMNWVRQAPGKCLEWVARIRSKYNNYATYYADSVKDRFTISRDDSKNTAYLQMNSLKTEDTAVYYCVRHGNFGNSYVSWFAYWGQGTLVTVSS
VL: QTVVTQEPSLTVSPGGTVTLTCRSSTGAVTTSNYANWVQQKPGQAFRGLIGGTNKRAPGVPARFSGSLLGGKAALTLSGVQPEDEAIYFCALWYSNLWVFGCGTKLTVL
B14: ABP100s.5 (antibody, V domains shown)
VH: EVQLVESGGGLVQPGGSLKLSCAASGFTFNTYAMNWVRQAPGKGLEWVARIRSKYNNYATYYADSVKDRFTISRDDSKNTAYLQMNSLKTEDTAVYYCVRHGNFGNSYVSWFAYWGQGTLVTVSS
VL: QTVVTQEPSLTVSPGGTVTLTCRSSTGAVTTSNYANWVQQKPGQAFRGLIGGTNKRAPGVPARFSGSLLGGKAALTLSGVQPEDEAIYFCALWYSNLWVFGGGTKLEIK
B15: ABP100s.13 (antibody, V domains shown)
VH: EVQLVESGGGLVQPGGSLRLSCAASGFTFNTYAMNWVRQAPGKGLEWVARIRSKYNNYATYYADSVKGRFTISRDDSQSSLYLQMNSLKTEDTAVYYCVRHGNFGNSYVSWFAYWGQGTLVTVSS
VL: QAVVTQEPSLTVSPGGTVTLTCGSSTGAVTTSNYANWVQQKPGQAFRGLIGGTNKRAPWTPARFSGSLIGDKAALTLSGAQPEDEAEYFCALWYSNLWVFGGGTKLTVL
B16: ABP100s.23 (antibody, V domains shown)
VH: EVQLVESGGGLVKPGGSLRLSCAASGFTFNTYAMNWVRQAPGKGLEWVARIRSKYNNYATYYADSVKGRFTISRDDSQSSLYLQMNSLRAEDTAVYYCVRHGNFGNSYVSWFAYWGQGTLVTVSS
VL: QAVVTQEPSFSVSPGGTVTLTCGSSTGAVTTSNYANWVQQTPGQAFRGLIGGTNKRASGVPDRFSGSLLGDKAALTITGAQADDESDYYCALWYSNLWVFGGGTKLTVL
B17: ABP100s.24 (antibody, V domains shown)
VH: EVQLVESGGGLVKPGGSLRLSCAASGFTFNTYAMNWVRQAPGKGLEWVARIRSKYNNYATYYADSVKGRFTISRDDAKSSLYLQMNSLRAEDTAVYYCVRHGNFGNSYVSWFAYWGQGTLVTVSS
VL: QAVVTQEPSFSVSPGGTVTLTCGSSTGAVTTSNYANWVQQTPGQAFRGLIGGTNKRASGVPDRFSGSLLGDKAALTITGAQADDESDYYCALWYSNLWVFGGGTKLTVL
B18: ABP100s.21 (antibody, V domains shown)
VH: EVQLVESGGGLVQPGGSLRLSCAASGFTFNTYAMNWVRQAPGKGLEWVARIRSKYNNYATYYADSVKGRFTISRDDSQSSLYLQMNSLKTEDTAVYYCVRHGNFGNSYVSWFAYWGQGTLVTVSS
VL: QAVVTQEPSFSVSPGGTVTLTCGSSTGAVTTSNYANWVQQTPGQAFRGLIGGTNKRASGVPDRFSGSLLGDKAALTITGAQADDESDYYCALWYSNLWVFGGGTKLTVL
B19: ABP100s.22 (antibody, V domains shown)
VH: EVQLVESGGGLVQPGGSLRLSCAASGFTFNTYAMNWVRQAPGKGLEWVARIRSKYNNYATYYADSVKGRFTISRDDSKSSLYLQMNSLKTEDTAVYYCVRHGNFGNSYVSWFAYWGQGTLVTVSS
VL: QAVVTQEPSFSVSPGGTVTLTCGSSTGAVTTSNYANWVQQTPGQAFRGLIGGTNKRASGVPDRFSGSLLGDKAALTITGAQADDESDYYCALWYSNLWVFGGGTKLTVL

The target of one assay is T1, HuCD3E (Homo sapiens, UniProt P07766 23-126, limits assumed).
T1 construct: Recombinant analyte in SPR and antigen in ELISA; also called human CD3; human CD3 epsilon
T1 sequence (P07766 23-126 limits assumed): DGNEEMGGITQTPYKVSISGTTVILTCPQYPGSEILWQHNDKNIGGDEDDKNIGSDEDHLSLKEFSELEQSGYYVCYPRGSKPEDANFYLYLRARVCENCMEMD
Put plainly: SPR, Biacore 8K; CD3 Affinity column: Hi. Background: Surface plasmon resonance follows binding to a sensor surface in real time, without labels.
In the case of B1, the Kd (commonly the free concentration of one partner at which half of the binding sites on the other are occupied at equilibrium, for simple one-to-one binding) is under 0.01 µM.

Regarding B2, the Kd was under 0.01 µM.

Turning to B3, the Kd was under 0.01 µM.

For the molecule B4, the Kd is under 0.01 µM.

As for B5, the Kd was under 0.01 µM.

B6 displayed a Kd of under 0.01 µM.

In turn, B7 returned a Kd of under 0.01 µM.

Take B8: the Kd was under 0.01 µM.

In turn, B9 yielded a Kd of under 0.01 µM.

With B10, the Kd is under 0.01 µM.

The molecule B11 showed a Kd of under 0.01 µM.

On to B12, for which the Kd is under 0.01 µM.

Turning to B13, the Kd is under 0.01 µM.

For B14, the Kd was under 0.01 µM.

For another assay, the target named is T1, HuCD3E. Put plainly: SPR, Biacore 8K; CD3 Affinity column: Hi. The source holds these as a separate data set. On the procedure:
Initially, the affinity measurement of the anti-CD3 clones were determined using a Surface Plasmon Resonance (SPR) biosensor, Biacore 8K (GE Healthcare). The equilibrium dissociation constant (KD) was calculated from the ratio of kd over ka. To determine the contribution of a specific residue to antibody affinity and expression, paratope mapping was performed by screening of NNK libraries. In brief, the VH and VL of the parental antibody were searched by using NCBI Ig-Blast (www.ncbi.nlm.nih.gov/projects/igblast/) and CDRs were defined by the KABAT delineation system. All residues within CDRs were defined and mutated by NNK method. Each individual NNK library was generated per residue based on the FASEBA platform with a theoretical diversity at 20. The DNA encoding both heavy chain and light chain were inserted into a mammalian expression vector, transfected into CHO-S cells, and stable clones of highest expression were selected. Supernatants were collected from shaker flasks and purified on protein A affinity chromatography.
Affinity ranking. Binding between the parental and affinity-tuned bispecific antibodies and human and cyno target proteins (HER2 and CD3) was validated by ELISA, and a Biacore 8K was used to study the kinetics of the interaction between the antigen and the bispecific antibodies.
On to B15, for which the dissociation constant Kd is under 0.01 µM.

Take B16: the Kd was under 0.01 µM.

Molecule B17 yielded a Kd of under 0.01 µM.

In turn, B18 yielded a Kd of under 0.01 µM.

For B19, the Kd is under 0.01 µM.
